Substrate in the data set: NC(=O)C[C@H](N)C(=O)O
In words: purified protein. The conditions noted are these: 50 mM Tris-HCl, pH 8.6, 37 °C.

Experimental findings from PMC6378094 are described below.

B1: ASPase A1 (Bacillus licheniformis) (protein)
chain: MNKKVALITTGGTIASRKTESGRLAAGAISGPELAEMCSLPEDVQIDVYPAFQLPSMHITFEHLLELKQTIERVFQNGGYDGAVVTHGTDTLEETAYFLDLTIEDERPVVVTGSQRAPEQQGTDAYTNIRHAVYTACSPDIKGAGTVVVFNERIFNARYVKKVHASNLQGFDVFGFGYLGIIDNDKVYVYQKPLKRDVHQLQRPLPAVDIVKCYLDGDGKFIRAAVREGVEGIVLEGVGRGQVPPNMMADIEQALNQGVYIVITTSAEEGEVYTTYDYAGSSYDLAKKGVILGKDYDSKKARMKLAVLLASYKEGLKDKFCY
B1: the Km was 10.30 µM, the kcat was found to be 24 s⁻¹ and the kcat/Km came to 2.33e+06 M⁻¹ s⁻¹.

B2: ASPase E (Leunase) (Escherichia coli K-12) (protein)
chain: LPNITILATGGTIAGGGDSATKSNYTVGKVGVENLVNAVPQLKDIANVKGEQVVNIGSQDMNDNVWLTLAKKINTDCDKTDGFVITHGTDTMEETAYFLDLTVKCDKPVVMVGAMRPSTSMSADGPFNLYNAVVTAADKASANRGVLVVMNDTVLDGRDVTKTNTTDVATFKSVNYGPLGYIHNGKIDYQRTPARKHTSDTPFDVSKLNELPKVGIVYNYANASDLPAKALVDAGYDGIVSAGVGNGNLYKSVFDTLATAAKTGTAVVRSSRVPTGATTQDAEVDDAKYGFVASGTLNPQKARVLLQLALTQTKDPQQIQQIFNQY
Take B2: the Km worked out at 5.788 µM, the kcat came to 7.73 s⁻¹ and the kcat/Km stood at 1.34e+06 M⁻¹ s⁻¹.
